Assay results reported in patent publication US20210079107A1 (Novartis, published 2021).
Where “and” joins values, the source holds several entries; their conditions need not be identical. Identical values can stand only once.

Columns and labels:
[1] = biological target: T1, recombinant human CD40 (human, UniProt P25942 21-193); experiment: SPR (Biacore T100), antibody captured on Protein A, CD40 as analyte, 25 °C, 1:1 model
T1 construct: Soluble analyte in SPR; also called CD40 antigen
Text: A typical binding analysis cycle consisted of three steps: (i) capture of the antibody via ProteinA immobilized on the chip surface, (ii) binding of CD40 antigen to the captured anti-CD40 antibody, and (iii) regeneration of the ProteinA surface. To determine the kinetic rate constants of the antigen-antibody binding interactions, binding data were processed, double referenced with responses from blank injections. The binding curves were fitted locally using the 1:1 interaction model of the Biacore T100 Evaluation software to determine kinetic rate constants. The value for the equilibrium dissociation constant (KD) was calculated as the ratio of the rate constants kd/ka. All binding measurements were performed in two independent experiments.

[2] = biological target: T2, human FcγRIIIA 158F extracellular domain (human, UniProt P08637 17-199, site directed biotinylated with BirA (Avi tag)); experiment: SPR (T100), biotinylated receptor on streptavidin chip, equilibrium binding, 1:1 model
T2 construct: range 17-199; not shown: 4-amino acid purification tag (4APP; Novartis)
T2 sequence (P08637 other isoform, or with tags, fused parts or gaps): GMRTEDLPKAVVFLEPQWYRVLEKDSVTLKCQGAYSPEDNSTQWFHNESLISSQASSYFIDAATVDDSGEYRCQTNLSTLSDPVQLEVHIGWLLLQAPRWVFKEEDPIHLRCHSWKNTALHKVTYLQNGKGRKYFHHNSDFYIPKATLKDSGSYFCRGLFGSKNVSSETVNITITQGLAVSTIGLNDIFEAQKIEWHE
Text: (§1) Extracellular domains of human FcγRIIIA tagged with a 4-amino acid purification tag (4APP; Novartis) and an Avi biotinylation tag ([…]; Avidity) were synthesized by Geneart: human FcγRIIIA (CD16a) 158V (Uniprot: P08637, 17-199), human FcγRIIIA 158F (Uniprot: P08637, 17-199), expressed in HEK293 cells and purified with anti-4APP affinity chromatography. Receptors were site directed biotinylated with BirA (Avidity), bound to streptavidin sensor chips (General Electric), and the equilibrium-binding levels of the different Abs were analyzed by surface plasmon resonance (T100, General Electric) as described (Warncke et al. 2012). Equilibrium dissociation constants (KD) were calculated by a 1:1 model.

[3] = biological target: T2, human FcγRIIIA 158F extracellular domain; experiment: SPR, biotinylated receptor on streptavidin chip, equilibrium binding
Text: as §1

[4] = biological target: T3, human FcγRIIIA (CD16a) 158V extracellular domain (human, UniProt P08637 17-199, site directed biotinylated with BirA (Avi tag)); experiment: as above
T3 construct: range 17-199; 158 is the usual mature numbering of the V/F allotype; also called Human FcγRIIIA 158V; not shown: 4-amino acid purification tag (4APP; Novartis)
T3 sequence (P08637 other isoform, or with tags, fused parts or gaps): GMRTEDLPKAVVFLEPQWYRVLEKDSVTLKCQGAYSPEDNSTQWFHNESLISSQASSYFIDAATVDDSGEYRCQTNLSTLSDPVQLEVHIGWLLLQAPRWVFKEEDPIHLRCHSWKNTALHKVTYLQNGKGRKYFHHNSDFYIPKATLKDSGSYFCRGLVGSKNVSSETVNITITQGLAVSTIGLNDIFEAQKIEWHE
Text: as §1

[5] = biological target: T4, human CD40 on cells (CD20+ B cells of whole blood/PBMCs, tonsil B cells, moDCs, RI-1 B cell line) (human, UniProt P25942 21-277); experiment: flow cytometry, CD40 occupancy by CFZ533 (MFI EC50 on CD20+ cells), human, n = 4; human CD20+ cells, n = 4
T4 construct: Endogenous CD40 on human cells; also called CD40 receptor
T4 sequence (P25942 21-277 limits assumed): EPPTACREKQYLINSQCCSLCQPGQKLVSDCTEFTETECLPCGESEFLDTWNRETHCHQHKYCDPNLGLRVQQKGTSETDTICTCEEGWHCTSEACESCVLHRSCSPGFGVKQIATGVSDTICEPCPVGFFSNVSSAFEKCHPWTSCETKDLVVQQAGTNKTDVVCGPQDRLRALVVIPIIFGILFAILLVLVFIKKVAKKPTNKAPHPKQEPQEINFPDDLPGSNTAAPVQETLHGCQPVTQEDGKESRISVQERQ

[6] = biological target: T4, human CD40 on cells (CD20+ B cells of …); experiment: cell-based or functional assay
[7] = biological target: T5, cynomolgus monkey CD40 on CD20+ B cells (cynomolgus, UniProt G7PG38 21-278); experiment: cell-based or functional assay
[8] = biological target: T4, human CD40 on cells (CD20+ B cells of …); experiment: cell-based or functional assay; remark: listed apart in the source
[9] = biological target: T6, rhesus monkey CD40 on CD20+ B cells (rhesus, UniProt F6SNI1 21-278); experiment: cell-based or functional assay
[10] = biological target: T5, cynomolgus monkey CD40 on CD20+ B cells; experiment: flow cytometry, CD40 occupancy by CFZ533 (MFI EC50 on CD20+ cells), cynomolgus, n = 4
[11] = biological target: T6, rhesus monkey CD40 on CD20+ B cells; experiment: flow cytometry, CD40 occupancy by CFZ533 (MFI EC50 on CD20+ cells), rhesus, n = 6
[12] = biological target: T4, human CD40 on cells (CD20+ B cells of …); experiment: cell-based or functional assay; remark: listed apart in the source
[13] = biological target: T4, human CD40 on cells (CD20+ B cells of …); experiment: flow cytometry, CD40 occupancy by CFZ533 (MFI EC50 on CD20+ cells), human, n = 4

T1 sequence (P25942 21-193 limits assumed): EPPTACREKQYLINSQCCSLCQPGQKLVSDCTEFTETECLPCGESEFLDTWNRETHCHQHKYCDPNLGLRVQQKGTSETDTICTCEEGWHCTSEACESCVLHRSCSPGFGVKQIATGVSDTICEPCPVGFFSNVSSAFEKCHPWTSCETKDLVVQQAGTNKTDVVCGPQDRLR

B1: HCD122 (wild-type IgG1 version of CFZ533) (antibody)
heavy: not shown
light: DIVMTQSPLSLTVTPGEPASISCRSSQSLLYSNGYNYLDWYLQKPGQSPQVLISLGSNRASGVPDRFSGSGSGTDFTLKISRVEAEDVGVYYCMQARQTPFTFGPGTKVDIRRTVAAPSVFIFPPSDEQLKSGTASVVCLLNNFYPREAKVQWKVDNALQSGNSQESVTEQDSKDSTYSLSSTLTLSKADYEKHKVYACEVTHQGLSSPVTKSFNRGEC
notes: it calls it the parental antibody and the wild-type IgG1 version of CFZ533 (N297A IgG1); It is built here as the CFZ533 chains with Asn in place of the Ala of N297A; 297 is a constant-region number; also called parental antibody
Kd [1]: 0.467 nM | koff [1]: 0.000126 s⁻¹ | kon [1]: 284000 M⁻¹ s⁻¹ | Ka [2]: 699000 M⁻¹

B2: CFZ533 (antibody, human IgG1, kappa, N297A)
heavy: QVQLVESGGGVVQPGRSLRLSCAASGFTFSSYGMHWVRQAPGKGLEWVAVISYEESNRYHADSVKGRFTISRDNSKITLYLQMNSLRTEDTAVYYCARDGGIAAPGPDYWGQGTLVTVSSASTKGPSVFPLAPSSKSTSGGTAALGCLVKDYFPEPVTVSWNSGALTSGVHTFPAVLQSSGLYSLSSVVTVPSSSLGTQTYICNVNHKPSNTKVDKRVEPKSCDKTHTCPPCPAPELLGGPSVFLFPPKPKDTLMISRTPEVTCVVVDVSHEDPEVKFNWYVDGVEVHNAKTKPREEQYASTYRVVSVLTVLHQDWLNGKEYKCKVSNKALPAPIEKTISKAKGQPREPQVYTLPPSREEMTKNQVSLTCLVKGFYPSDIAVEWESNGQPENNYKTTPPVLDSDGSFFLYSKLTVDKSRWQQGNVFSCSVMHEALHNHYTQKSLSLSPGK
light: DIVMTQSPLSLTVTPGEPASISCRSSQSLLYSNGYNYLDWYLQKPGQSPQVLISLGSNRASGVPDRFSGSGSGTDFTLKISRVEAEDVGVYYCMQARQTPFTFGPGTKVDIRRTVAAPSVFIFPPSDEQLKSGTASVVCLLNNFYPREAKVQWKVDNALQSGNSQESVTEQDSKDSTYSLSSTLTLSKADYEKHKVYACEVTHQGLSSPVTKSFNRGEC
notes: In the receptor occupancy and internalisation assays it was labelled with AlexaFluor 488; also called mAb1; iscalimab
binding result [3]: no binding | binding result [4]: no binding | EC50 [5]: 1.49 nM | Kd [1]: 0.305 nM | koff [1]: 9.3e-05 s⁻¹ | kon [1]: 313000 M⁻¹ s⁻¹ | IC50 (read off the curve): rCD154-induced CD69 expression on CD20pos B cells, human whole blood [6]: ~0.1 µg/mL | Inhibition of rCD154-induced proliferation (IC50 PBMCs) [7]: 0.01 µg/mL | Inhibition of rCD154-induced proliferation (IC50 PBMCs) [8]: 0.017 µg/mL | Inhibition of rCD154-induced proliferation (IC50 PBMCs) [9]: 0.026 µg/mL | EC50 [10]: 0.2 µg/mL | EC50 [11]: 0.22 µg/mL | IC50, rCD154-induced TNF production by primary monocyte-derived dendritic cells (moDCs) [12]: 0.04 µg/ml and 0.27 nM | IC50, rCD154-induced proliferation of human whole blood cultures [12]: 0.024 µg/ml and 0.16 nM | IC50, rCD154-induced proliferation of purified tonsillar B cells [12]: 0.47 nM and 0.071 µg/ml | EC50 [13]: 0.22 µg/mL
